Test results: patent US6930088B2, “Conformationally constrained backbone cyclized somatostatin analogs” (Peptor Ltd., priority 1998, dated 2005)
*1 amine or outer side, *2 acyl side, *3 side chain or, on linkers, in order; H or OH if unused. Bridges are numbered along the chain shown (N, C = ends). Where no end group is shown, it is not given here. [ ]: non-standard residue; d: D form. N(2-aminoethyl)Phe = O=C([C@H](Cc1ccccc1)N(CCN[*:3])[*:1])[*:2]; N(CH2CH2CO)Gly = O=C(CN(CCC(=O)[*:3])[*:1])[*:2]; 2Nal = N[C@@H](Cc1ccc2ccccc2c1)C(=O)O; d2Nal = N[C@H](Cc1ccc2ccccc2c1)C(=O)O; Phe(C1) = not defined here; Phe(C2) = not defined here; Phe(C3) = not defined here

B1: PTR 3113 (peptide)
peptide: [Phe(C1)]FF[dW]K[N(2-aminoethyl)Phe]
modifications: lactam 1-6; reading uncertain
notes: Backbone cyclized hexapeptide somatostatin analog
B2: PTR 3173 (peptide)
peptide: XFWWKTFG
modifications: GABA at 1 (written X); (D)Trp at 4; Gly(C3) building unit at 8 bridged by an amide to the N terminus (GABA); C-terminal amide
notes: Backbone-to-end cyclized octapeptide

Tests used:
[1] = system: somatostatin receptors (SSTR-1, 2, 3, 4 or 5); assay: Somatostatin receptor subtype selectivity of binding; parameters: species or system human; details: in words
Protocol: The somatostatin analogs were tested for their potency in inhibition of the binding of ^125I-Tyr^11-SRIF (based on the method described by Raynor et. al., Molecular Pharmacology, 1993, 43, 838-844) to membrane preparations expressing the transmembranal somatostatin receptors (SSTR-1, 2, 3, 4 or 5). The receptor preparations used for these tests were either from the cloned human receptors selectively and stably expressed in Chinese Hamster Ovary (CHO) cells or from cell lines naturally expressing the SSTRs. Typically, cell membranes were homogenated in Tris buffer in the presence of protease inhibitors and incubated for 30-40 minutes with ^125I-Tyr^11-SRIF with different concentrations of the tested sample. The binding reactions were filtered, the filters were washed and the bound radioactivity was counted in gamma counter. Non specific binding was defined as the radioactivity remaining bound in the presence of 1 μM unlabeled SRIF-14.
In order to validate positive signals of the binding tests, and to eliminate non-specific signals, samples of irrelevant peptides, such as GnRH, that were synthesized and handled using the same procedures, were tested in the same assays as negative control samples. These samples had no binding activity in any of the assays. Results are shown below in Tables 5 and 6 and FIG. 1.

[2] = target: T1, cloned human somatostatin receptor 3 (human, UniProt P32745 1-418); assay: 125I-Tyr11-SRIF displacement, membranes, cloned human SST-R3
T1 construct: whole, on cells; Tested as cell membrane preparations; also called SSTR-3; SSTR3
Excerpt: (§1) The receptor preparations used for these tests were either from the cloned human receptors selectively and stably expressed in Chinese Hamster Ovary (CHO) cells or from cell lines naturally expressing the SSTRs. […] The binding reactions were filtered, the filters were washed and the bound radioactivity was counted in gamma counter.

[3] = target: T1, cloned human somatostatin receptor 3; assay: inhibition of SRIF binding, cloned human SSTR-3; head says nM, values evidently molar
Excerpt: as §1

[4] = target: T2, cloned human somatostatin receptor 5 (human, UniProt P35346 1-364); assay: inhibition of SRIF binding, cloned human SSTR-5; head says nM, values evidently molar
T2 construct: whole, on cells; Tested as cell membrane preparations; also called SSTR-5; SSTR5
Excerpt: as §1

[5] = target: T3, cloned human somatostatin receptor 2 (human, UniProt P30874 1-369); assay: inhibition of SRIF binding, cloned human SSTR-2; head says nM, values evidently molar
T3 construct: whole, on cells; Tested as cell membrane preparations; also called SSTR-2; SSTR2
Excerpt: as §1

[6] = target: T4, cloned human somatostatin receptor 4 (human, UniProt P31391 1-388); assay: 125I-Tyr11-SRIF displacement, cloned human SSTR-R4
T4 construct: whole, on cells; Tested as cell membrane preparations; also called SSTR-4; SSTR-R4
T4 sequence (P31391 whole entry): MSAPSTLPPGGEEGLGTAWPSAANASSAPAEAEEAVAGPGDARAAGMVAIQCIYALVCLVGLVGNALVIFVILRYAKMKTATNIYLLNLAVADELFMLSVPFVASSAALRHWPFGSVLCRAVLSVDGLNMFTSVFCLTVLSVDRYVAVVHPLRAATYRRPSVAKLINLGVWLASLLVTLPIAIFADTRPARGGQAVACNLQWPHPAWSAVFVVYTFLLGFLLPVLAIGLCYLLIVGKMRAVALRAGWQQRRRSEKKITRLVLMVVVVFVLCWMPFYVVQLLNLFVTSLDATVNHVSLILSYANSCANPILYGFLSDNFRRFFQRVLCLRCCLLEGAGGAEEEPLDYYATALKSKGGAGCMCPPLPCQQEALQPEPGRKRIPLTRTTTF

T2 sequence (P35346 whole entry): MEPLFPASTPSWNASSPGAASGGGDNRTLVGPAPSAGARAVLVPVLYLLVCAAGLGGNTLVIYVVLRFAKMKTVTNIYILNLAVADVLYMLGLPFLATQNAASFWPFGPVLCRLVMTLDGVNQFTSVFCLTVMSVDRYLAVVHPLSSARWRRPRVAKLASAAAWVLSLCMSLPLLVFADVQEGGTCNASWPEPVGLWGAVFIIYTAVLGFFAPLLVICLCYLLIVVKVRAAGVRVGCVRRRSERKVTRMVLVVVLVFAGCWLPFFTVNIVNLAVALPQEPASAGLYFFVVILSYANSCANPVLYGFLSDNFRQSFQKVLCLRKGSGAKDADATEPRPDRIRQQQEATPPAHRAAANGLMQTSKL
T3 sequence (P30874 whole entry): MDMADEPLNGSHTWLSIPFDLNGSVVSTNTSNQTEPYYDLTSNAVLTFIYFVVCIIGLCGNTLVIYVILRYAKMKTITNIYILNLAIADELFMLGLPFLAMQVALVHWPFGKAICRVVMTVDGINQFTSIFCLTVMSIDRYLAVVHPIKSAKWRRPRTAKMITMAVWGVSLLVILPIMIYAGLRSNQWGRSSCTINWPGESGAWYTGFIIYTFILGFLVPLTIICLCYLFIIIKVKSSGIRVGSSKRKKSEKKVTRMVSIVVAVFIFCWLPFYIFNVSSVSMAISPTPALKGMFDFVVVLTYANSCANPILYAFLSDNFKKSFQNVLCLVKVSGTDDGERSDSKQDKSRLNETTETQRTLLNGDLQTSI
T1 sequence (P32745 whole entry): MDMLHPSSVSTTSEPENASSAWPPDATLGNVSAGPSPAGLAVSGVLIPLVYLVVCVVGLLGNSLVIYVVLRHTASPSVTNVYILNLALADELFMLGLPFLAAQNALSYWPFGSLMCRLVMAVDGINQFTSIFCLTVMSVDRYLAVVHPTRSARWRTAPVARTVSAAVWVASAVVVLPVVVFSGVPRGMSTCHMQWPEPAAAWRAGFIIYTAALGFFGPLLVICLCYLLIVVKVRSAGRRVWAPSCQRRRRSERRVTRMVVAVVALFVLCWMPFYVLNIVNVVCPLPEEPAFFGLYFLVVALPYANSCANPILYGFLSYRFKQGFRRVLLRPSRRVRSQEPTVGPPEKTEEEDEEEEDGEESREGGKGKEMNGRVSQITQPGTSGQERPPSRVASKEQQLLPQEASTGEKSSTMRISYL

Row | Molecule | somatostatin receptor subtype selectivity [1] | IC50 [3] [nM] | IC50 [4] [nM] | IC50 [5] [nM] | further results
1 | Phe(N2)-Tyr-(D)2Nal-Lys-Val-Gly(C2)-Thr-X ([N(2-aminoethyl)Phe]Y[d2Nal]KV[N(CH2CH2CO)Gly]T; lactam 1-6; not fully specified; printed as Phe(N2)-Tyr-(D)2Nal-Lys-Val-Gly(C2)-Thr-X) [PTR 3209] | selective for the type 1 receptor | – | – | – | –
2 | Phe(N2)-Tyr-(D)Trp-Lys-Val-Gly(C2)-2Nal-X ([N(2-aminoethyl)Phe]Y[dW]KV[N(CH2CH2CO)Gly][2Nal]; lactam 1-6; not fully specified) [PTR 3183] | selective for the type 5 somatostatin receptor | – | – | – | –
3 | Phe(N2)-Tyr-(D)Trp-Lys-Val-Val-Gly(C2)-X ([N(2-aminoethyl)Phe]Y[dW]KVV[N(CH2CH2CO)Gly]; lactam 1-7; not fully specified) [PTR 3185] | selective for the type 5 somatostatin receptor | – | – | – | –
4 | B1 | – | – | – | – | percent inhibition of SRIF-14 binding at 10^-6M [2]: 94%; percent inhibition of SRIF-14 binding at 10^-7M [2]: 65%; percent inhibition of SRIF-14 binding at 10^-8M [2]: 16%
5 | [N(2-aminoethyl)Phe]F[dW]KT[2Nal][N(CH2CH2CO)Gly] (lactam 1-7; not fully specified, Backbone cyclized heptapeptide) [PTR 3203] | – | 10 | 10 | 100 | –
6 | B2 | – | 100 | 1 | 1 | percent inhibition of SRIF-14 binding at 10^-6 M [6]: 5%; percent inhibition of SRIF-14 binding at 10^-7M [6]: 5%; percent inhibition of SRIF-14 binding at 10^-8M [6]: 0%; percent inhibition of SRIF-14 binding at 10^-9 M [6]: 0%; percent inhibition of SRIF-14 binding at 10^-10 M [6]: 0%; percent inhibition of SRIF-14 binding at 10^-11 M [6]: 0%
7 | [Phe(C3)]CF[dW]KTC[Phe(N3)]-NH2 (lactam 1-8; disulfide 2-7; reading uncertain, Bicyclic analog) [PTR 3205] | – | – | – | 1 | –
8 | FFF[dW][dK][Phe(C2)] (lactam N-6; reading uncertain, Backbone-to-end cyclized hexapeptide) [PTR 3171] | – | – | – | – | percent inhibition of SRIF-14 binding at 10^-6M [2]: 87%; percent inhibition of SRIF-14 binding at 10^-7M [2]: 40%; percent inhibition of SRIF-14 binding at 10^-8M [2]: 12%
9 | [N(2-aminoethyl)Phe]Y[dW]KS[2Nal][N(CH2CH2CO)Gly] (lactam 1-7; not fully specified, Backbone cyclized heptapeptide) [PTR 3201] | – | 10 | 1 | 100 | –
